What was measured:
Experiment in all cases: purified protein
Conditions in all cases: no added Zn(II), 20 mM HEPES pH 7.5, 30°C
[1] = test system: C[C@@H](O)[C@H]1C(=O)N2C(C(=O)O)=C(SCCN=CN)C[C@H]12; assay type: biochemical, Serratia marcescens
Excerpt: (§1) steady-state hydrolysis, UV-VIS spectrophotometry on IMP-1

[2] = test system: C[C@@H](O)[C@H]1C(=O)N2C(C(=O)O)=C(S[C@@H]3CN[C@H](C(=O)N(C)C)C3)[C@H](C)[C@H]12; assay type: biochemical, Serratia marcescens
Excerpt: as §1

[3] = test system: CC(=O)OCC1=C(C(=O)O)N2C(=O)[C@@H](NC(=O)Cc3cccs3)[C@H]2SC1; assay type: biochemical, Serratia marcescens
Excerpt: as §1

[4] = test system: CC1(C)S[C@@H]2[C@H](NC(=O)[C@H](N)c3ccccc3)C(=O)N2[C@H]1C(=O)O; assay type: biochemical, Serratia marcescens
Excerpt: as §1

[5] = test system: CC(C)(O/N=C(\C(=O)N[C@@H]1C(=O)N2C(C(=O)[O-])=C(C[n+]3ccccc3)CS[C@H]12)c1csc(N)n1)C(=O)O; assay type: biochemical, Serratia marcescens
Excerpt: as §1

[6] = test system: CC1(C)S[C@@H]2[C@H](NC(=O)Cc3ccccc3)C(=O)N2[C@H]1C(=O)O; assay type: biochemical, Serratia marcescens
Excerpt: as §1

[7] = test system: CO/N=C(\C(=O)N[C@@H]1C(=O)N2C(C(=O)O)=C(COC(C)=O)CS[C@H]12)c1csc(N)n1; assay type: biochemical, Serratia marcescens
Excerpt: as §1

[8] = test system: CC1=C(C(=O)O)N2C(=O)[C@@H](NC(=O)[C@H](N)c3ccccc3)[C@H]2SC1
[9] = test system: C[C@@H](O)[C@H]1C(=O)N2C(C(=O)O)=C(S[C@@H]3CN[C@H](C(=O)N(C)C)C3)[C@H](C)[C@H]12; assay type: biochemical, Morganella morganii
Excerpt: (§2) steady-state hydrolysis, UV-VIS spectrophotometry on IMP-27

[10] = test system: CC(=O)OCC1=C(C(=O)O)N2C(=O)[C@@H](NC(=O)Cc3cccs3)[C@H]2SC1; assay type: biochemical, Morganella morganii
Excerpt: as §2

[11] = test system: CC1(C)S[C@@H]2[C@H](NC(=O)[C@H](N)c3ccccc3)C(=O)N2[C@H]1C(=O)O; assay type: biochemical, Morganella morganii
Excerpt: as §2

[12] = test system: CC(C)(O/N=C(\C(=O)N[C@@H]1C(=O)N2C(C(=O)[O-])=C(C[n+]3ccccc3)CS[C@H]12)c1csc(N)n1)C(=O)O; assay type: biochemical, Morganella morganii
Excerpt: as §2

[13] = test system: CC1(C)S[C@@H]2[C@H](NC(=O)Cc3ccccc3)C(=O)N2[C@H]1C(=O)O; assay type: biochemical, Morganella morganii
Excerpt: as §2

[14] = test system: CO/N=C(\C(=O)N[C@@H]1C(=O)N2C(C(=O)O)=C(COC(C)=O)CS[C@H]12)c1csc(N)n1; assay type: biochemical, Morganella morganii
Excerpt: as §2

Q: Which results are given for IMP-1 (Serratia marcescens)?
A: Km [1]: 48.6 ± 10.2 µM; kcat [1]: 87.6 ± 4.5 s⁻¹; kcat/Km [1]: 1.88e+06 M⁻¹ s⁻¹; Km [2]: 83.3 ± 16.1 µM; kcat [2]: 25.1 ± 4.4 s⁻¹; kcat/Km [2]: 301000 M⁻¹ s⁻¹; Km [3]: 1.62 ± 0.21 µM; kcat [3]: 82.5 ± 5.9 s⁻¹; kcat/Km [3]: 5.11e+07 M⁻¹ s⁻¹; Km [4]: 41.8 ± 7.6 µM; kcat [4]: 37.6 ± 3.1 s⁻¹; kcat/Km [4]: 899000 M⁻¹ s⁻¹; Km [5]: 38.1 ± 1.6 µM; kcat [5]: 14.2 ± 0.8 s⁻¹; kcat/Km [5]: 373000 M⁻¹ s⁻¹; Km [6]: 144 ± 6 µM; kcat [6]: 367 ± 38 s⁻¹; kcat/Km [6]: 2.56e+06 M⁻¹ s⁻¹; Km [7]: 3.44 ± 0.12 µM; kcat [7]: 26 ± 1.8 s⁻¹; kcat/Km [7]: 7.55e+06 M⁻¹ s⁻¹; Km [8]: 18.5 ± 2.9 µM; kcat [8]: 75.1 s⁻¹; kcat/Km [8]: 4.06e+06 M⁻¹ s⁻¹

Q: IMP-27 (Morganella morganii) was tested. Which Km [8] did it give?
A: 5.47 ± 0.53 µM

Q: And the kcat [8]?
A: 1.19 s⁻¹

Q: What about the kcat/Km [8] of the same substance?
A: 217000 M⁻¹ s⁻¹

Q: And the Km [9]?
A: 4.21 ± 0.29 µM

Q: What about the kcat [9] of the same substance?
A: 6.79 ± 0.8 s⁻¹

Q: And the kcat/Km [9]?
A: 1.63e+06 M⁻¹ s⁻¹

Q: What about the Km [10] of the same substance?
A: 9.23 ± 0.88 µM

Q: What about the kcat [10] of the same substance?
A: 290 ± 39 s⁻¹

Q: What about the kcat/Km [10] of the same substance?
A: 3.14e+07 M⁻¹ s⁻¹

Q: And the kcat [11]?
A: > 7.25 s⁻¹

Q: And the kcat/Km [11]?
A: 28800 M⁻¹ s⁻¹

Q: What about the Km [12] of the same substance?
A: 27.5 ± 3.4 µM

Q: What about the kcat [12] of the same substance?
A: 2.02 ± 0.3 s⁻¹

Q: And the kcat/Km [12]?
A: 73200 M⁻¹ s⁻¹

Q: And the Km [13]?
A: 218 ± 28 µM

Q: And the kcat [13]?
A: 20.3 ± 2.2 s⁻¹

Q: And the kcat/Km [13]?
A: 93200 M⁻¹ s⁻¹

Q: What about the Km [14] of the same substance?
A: 6.57 ± 0.96 µM

Q: What about the kcat [14] of the same substance?
A: 50.7 ± 6.6 s⁻¹

Q: What about the kcat/Km [14] of the same substance?
A: 7.72e+06 M⁻¹ s⁻¹
